# Laboratory results published in patent US20210155689A1 (SHANGHAI PHARMAEXPLORER, published 2021).
# “And” between values parts separate entries of the source, which are not always exact repeats. Identical values can stand only once.
# T1: human LAG-3 ECD (antigen protein of the affinity test) (human, UniProt P18627 23-450)
# T1 sequence: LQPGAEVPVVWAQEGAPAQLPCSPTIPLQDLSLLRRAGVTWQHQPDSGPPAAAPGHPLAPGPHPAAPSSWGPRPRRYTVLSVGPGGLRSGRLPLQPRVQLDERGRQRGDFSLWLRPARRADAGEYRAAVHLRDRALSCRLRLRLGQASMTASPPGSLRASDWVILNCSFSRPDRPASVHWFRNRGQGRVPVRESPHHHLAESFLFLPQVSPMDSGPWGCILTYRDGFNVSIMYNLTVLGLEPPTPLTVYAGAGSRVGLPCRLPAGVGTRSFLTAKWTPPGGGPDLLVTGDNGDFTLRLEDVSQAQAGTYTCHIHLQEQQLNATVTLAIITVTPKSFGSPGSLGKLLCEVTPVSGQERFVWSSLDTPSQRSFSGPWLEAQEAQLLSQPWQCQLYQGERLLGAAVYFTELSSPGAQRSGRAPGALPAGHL
# T2: human LAG-3 ECD (antigen protein of the affinity test) (human, UniProt P18627 23-450)
# T2 sequence: T1 sequence
# B1: 556F6B8-3 (D→E) hot-spot mutated humanized antibody (antibody, V domains shown)
# VH: QVQLQESGPGLVKPSETLSLTCTVSGFSLIKYGVHWIRQPPGKGLEWIGVIWRGGITDYNAAFMSRVTISKDTSKSQVSLKLSSVTAADTAVYYCARWEGPLAMDYWGQGTTVTVSS
# VL: DIQLTQSPSFLSASVGDRVTITCKASQDVGTTVAWYQQKPGKAPKLLIYWASTRHTGVPSRFSGSGSGTEFTLTISSLQPEDFATYYCQQYSSYPYTFGQGTKLEIK
# B2: 556F6B8-3 (D→E) (humanized antibody with hot spot mutation) (antibody, human IgG4, V domains shown)
# VH: B1 VH
# VL: B1 VL
# notes: made as the humanized antibodies (human IgG4 constant region); also called humanized antibody 556F6B8-3 with hot spot mutation
# B3: 553G8G8 (mouse antibody purified from hybridoma) (antibody, V domains shown)
# VH: RVQLKQSGPGLVQPSQSLSITCTVSGFSLIKYGVHWVRQSPGEGLEWLGVIWRGGITDYNAAFMSRLSITKDNSKSQVFFKMNSLQADDTAIYYCAKWDGPLAMDYWGQGTSVTVSS
# VL: DVQMIQSPSSLSASLGDMVTMTCQASQGTNINLNWFQQKPGKAPKLLIYGASNLEDGVPSRFSGSRYGTDFTLTISSLEDEDMATYFGLQHSYLPLTFGAGTKLELK
# B4: 556F6B8 mouse-human chimeric antibody (antibody, V domains shown)
# VH: B3 VH
# VL: DIVMTQSHKFLSTSVGDRVSITCKASQDVGTTVAWYQQKPGQSPKLLIYWASTRHTGVPDRFTGSGSGTDFTLTISNVQSEDLADYFCQQYSSYPYTFGGGTKLEIK
# notes: also called mAb123-556F6B8
# B5: 405B8H3-1 (D→E) (humanized antibody with hot spot mutation) (antibody, human IgG4, V domains shown)
# VH: QVQLVQSGAEVKKPGASVKVSCKASGYTFTDYEMHWVRQAPGQGLEWMGATDPETGNSAYNQKFKGRVTMTRDTSTSTVYMELSSLRSEDTAVYYCISTGWNDWGQGTTVTVSS
# VL: DIQMTQSPSSLSASVGDRVTITCKASQDINSYLSWFQQKPGKAPKSLIYRADRLLEGVPSRFSGSGSGTDFTLTISSLQPEDFATYYCLQYDEFPYTFGQGTKLEIK
# notes: made as the humanized antibodies (human IgG4 constant region); also called 405B81-13-1 (D→E); hot-spot mutated antibody
# Columns and labels:
# [1] = target: human LAG-3 (full length, on the cell surface) (human) (UniProt P18627); assay: cell-based or functional assay
# Target sequence in this assay (P18627 23-525 limits assumed): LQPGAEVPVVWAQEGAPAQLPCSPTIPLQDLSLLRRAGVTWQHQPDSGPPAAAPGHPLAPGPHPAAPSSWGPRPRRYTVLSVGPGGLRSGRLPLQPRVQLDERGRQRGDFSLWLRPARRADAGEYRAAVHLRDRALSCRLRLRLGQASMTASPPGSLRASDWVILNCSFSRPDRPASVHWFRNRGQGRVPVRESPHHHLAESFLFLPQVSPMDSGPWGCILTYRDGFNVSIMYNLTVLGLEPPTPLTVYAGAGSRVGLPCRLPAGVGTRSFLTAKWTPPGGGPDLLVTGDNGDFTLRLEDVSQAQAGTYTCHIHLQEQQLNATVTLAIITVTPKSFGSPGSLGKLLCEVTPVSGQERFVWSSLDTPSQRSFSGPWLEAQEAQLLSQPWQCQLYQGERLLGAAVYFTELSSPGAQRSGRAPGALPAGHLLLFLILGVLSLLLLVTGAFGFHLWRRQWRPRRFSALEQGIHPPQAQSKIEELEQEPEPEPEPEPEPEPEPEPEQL
# [2] = target: human LAG-3 (full length, on the cell surface) (human) (UniProt P18627); assay: FACS, HEK293-hLAG-3; 0.000 nM
# [3] = target: human LAG-3 (full length, on the cell surface) (human) (UniProt P18627); assay: FACS, HEK293-hLAG-3; 0.013 nM
# [4] = target: human LAG-3 (full length, on the cell surface) (human) (UniProt P18627); assay: FACS, HEK293-hLAG-3; 0.064 nM
# [5] = target: human LAG-3 (full length, on the cell surface) (human) (UniProt P18627); assay: FACS, HEK293-hLAG-3; 0.320 nM
# [6] = target: human LAG-3 (full length, on the cell surface) (human) (UniProt P18627); assay: FACS, HEK293-hLAG-3; 1.600 nM
# [7] = target: human LAG-3 (full length, on the cell surface) (human) (UniProt P18627); assay: FACS, HEK293-hLAG-3; 8.000 nM
# [8] = target: monkey LAG-3 (full length, on the cell surface) (monkey); assay: FACS, HEK293-cLAG-3; 0.000 nM
# [9] = target: monkey LAG-3 (full length, on the cell surface) (monkey); assay: FACS, HEK293-cLAG-3; 0.013 nM
# [10] = target: monkey LAG-3 (full length, on the cell surface) (monkey); assay: FACS, HEK293-cLAG-3; 0.064 nM
# [11] = target: monkey LAG-3 (full length, on the cell surface) (monkey); assay: FACS, HEK293-cLAG-3; 0.320 nM
# [12] = target: monkey LAG-3 (full length, on the cell surface) (monkey); assay: FACS, HEK293-cLAG-3; 1.600 nM
# [13] = target: monkey LAG-3 (full length, on the cell surface) (monkey); assay: FACS, HEK293-cLAG-3; 8.000 nM
# [14] = target: human LAG-3 (full length, on the cell surface) (human) (UniProt P18627); assay: FACS, HEK293-hLAG-3; 40.000 nM
# [15] = target: monkey LAG-3 (full length, on the cell surface) (monkey); assay: FACS, HEK293-cLAG-3; 40.000 nM
# [16] = target: human LAG-3 (full length, on the cell surface) (human) (UniProt P18627); assay: FACS, HEK293-hLAG-3; 200.000 nM
# [17] = target: monkey LAG-3 (full length, on the cell surface) (monkey); assay: FACS, HEK293-cLAG-3; 200.000 nM
# [18] = target: human LAG-3 protein with hFc tag (hLAG-3-hFc protein) (human) (UniProt P18627); assay: FACS, blocks LAG-3-hFc binding to MHC II on Raji; 0.000 nM
# [19] = target: human LAG-3 protein with hFc tag (hLAG-3-hFc protein) (human) (UniProt P18627); assay: FACS, blocks LAG-3-hFc binding to MHC II on Raji; 0.274 nM
# [20] = target: human LAG-3 protein with hFc tag (hLAG-3-hFc protein) (human) (UniProt P18627); assay: FACS, blocks LAG-3-hFc binding to MHC II on Raji; 0.823 nM
# [21] = target: human LAG-3 protein with hFc tag (hLAG-3-hFc protein) (human) (UniProt P18627); assay: FACS, blocks LAG-3-hFc binding to MHC II on Raji; 2.469 nM
# [22] = target: human LAG-3 protein with hFc tag (hLAG-3-hFc protein) (human) (UniProt P18627); assay: FACS, blocks LAG-3-hFc binding to MHC II on Raji; 7.407 nM
# [23] = target: human LAG-3 protein with hFc tag (hLAG-3-hFc protein) (human) (UniProt P18627); assay: FACS, blocks LAG-3-hFc binding to MHC II on Raji; 22.222 nM
# [24] = target: human LAG-3 protein with hFc tag (hLAG-3-hFc protein) (human) (UniProt P18627); assay: FACS, blocks LAG-3-hFc binding to MHC II on Raji; 66.667 nM
# [25] = target: human LAG-3 protein with hFc tag (hLAG-3-hFc protein) (human) (UniProt P18627); assay: FACS, blocks LAG-3-hFc binding to MHC II on Raji; 200.000 nM
# [26] = target: T1, human LAG-3 ECD (antigen protein of the …); assay: SPR (CM5 chip), antibody captured by anti-human Fc IgG, antigen protein in flow, 1:1 model
# Description: (§1) First, anti-human Fc IgG was immobilized on the surface of the CM5 chip to 6000-10000 RU by amino coupling method, with FC1 as the reference channel. The coupling process was as follows: a freshly prepared 1:1 mixture of 50 mM NHS and 200 mM EDC was activated for 7 minutes, then injected with 10-50 ug/ml anti-human Fc IgG diluted in 10 mM sodium acetate ph5.0 buffer. The remaining activated sites were blocked with 1M ethanolamine. Then, HBS-EP+ buffer was used to dilute the antibody to be tested to 5 ug/ml (adjustable according to the capture level) and the antibodies were captured on the chip at a flow rate of 10 ul/min to obtain a response value of about 100˜300 RU. Then the antigen protein was diluted to 100 nM (the highest concentration was tentatively 100 nM), and flew through the chip surface at a flow rate of 30 ul/min. If enough signal value was obtained, the antigen-protein was diluted by several concentration gradients, and flew through the chip surface respectively. At the end of each cycle, the chip surface was regenerated with 10 mM Glycine at pH 1.5. The kinetic rate constant needed to be subtracted from the blank control, and the data was fitted with the global fit analysis method 1:1 combination model. The dissociation equilibrium rate constant (KD) was calculated according to the following formula: KD=kd/ka.
# (§2) The method was the same as that in Example 5.
# [27] = target: T2, human LAG-3 ECD (antigen protein of the …); assay: SPR, antibody captured by anti-human Fc IgG on CM5; ratio of KD values
# Description: as §1, §2
# [28] = target: human LAG-3 (full length, on the cell surface) (human) (UniProt P18627); assay: cell-based or functional assay; remark: listed apart in the source
# Sequence of monkey LAG-3 (full length, on the cell surface) (monkey) (P18627 other isoform, or with tags, fused parts or gaps limits assumed): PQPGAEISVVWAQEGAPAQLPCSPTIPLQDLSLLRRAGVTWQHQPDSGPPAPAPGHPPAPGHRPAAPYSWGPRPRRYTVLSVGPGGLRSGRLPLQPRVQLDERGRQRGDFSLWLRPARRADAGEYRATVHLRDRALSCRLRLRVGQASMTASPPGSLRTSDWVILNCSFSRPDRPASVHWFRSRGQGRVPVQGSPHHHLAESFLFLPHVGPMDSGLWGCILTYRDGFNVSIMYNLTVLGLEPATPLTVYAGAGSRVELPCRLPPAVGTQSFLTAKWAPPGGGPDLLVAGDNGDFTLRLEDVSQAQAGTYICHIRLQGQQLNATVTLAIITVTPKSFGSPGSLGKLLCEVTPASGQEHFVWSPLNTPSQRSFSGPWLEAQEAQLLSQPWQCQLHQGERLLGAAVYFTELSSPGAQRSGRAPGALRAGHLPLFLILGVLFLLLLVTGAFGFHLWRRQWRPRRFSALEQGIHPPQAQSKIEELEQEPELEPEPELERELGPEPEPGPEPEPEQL
molecule,measurement,setting,value
mIgG1 (murine IgG control) (antibody),"mIL-2 (pg/mL), antigen-specific T lymphocyte stimulation test; control IgG 0.016 ug/mL",[1],177 pg/mL and 104 pg/mL
same,"mIL-2 (pg/mL), antigen-specific T lymphocyte stimulation test; control IgG 0.08 ug/mL",[1],175 pg/mL and 89.2 pg/mL
same,"mIL-2 (pg/mL), antigen-specific T lymphocyte stimulation test; control IgG 2 ug/mL",[1],174 pg/mL and 84.1 pg/mL
same,"mIL-2 (pg/mL), antigen-specific T lymphocyte stimulation test; control IgG 4 ug/mL (so in the source)",[1],145 pg/mL and 84.2 pg/mL
same,"mIL-2 (pg/mL), antigen-specific T lymphocyte stimulation test; control IgG 10 ug/mL",[1],169 pg/mL and 108 pg/mL
same,Mean fluorescence intensity,[2],3 MFI and 3.8 MFI
same,Mean fluorescence intensity,[3],2.9 MFI and 3.8 MFI
same,Mean fluorescence intensity,[4],2.9 MFI and 3.8 MFI
same,Mean fluorescence intensity,[5],2.7 MFI and 3.8 MFI
same,Mean fluorescence intensity,[6],2.7 MFI and 3.9 MFI
same,Mean fluorescence intensity,[7],2.9 MFI and 3.9 MFI
same,Mean fluorescence intensity,[8],3.4 MFI and 4 MFI
same,Mean fluorescence intensity,[9],3.5 MFI and 4 MFI
same,Mean fluorescence intensity,[10],3.2 MFI and 4 MFI
same,Mean fluorescence intensity,[11],3.3 MFI and 4 MFI
same,Mean fluorescence intensity,[12],3.2 MFI and 4 MFI
same,Mean fluorescence intensity,[13],3.3 MFI and 4.1 MFI
same,Mean fluorescence intensity,[14],2.8 MFI and 4 MFI
same,Mean fluorescence intensity,[15],3.3 MFI and 4.1 MFI
same,Mean fluorescence intensity,[16],2.8 MFI and 4.2 MFI
same,Mean fluorescence intensity,[17],3.6 MFI and 4.2 MFI
same,Inhibition rate (%),[18],8.2% and -11.5%
same,Inhibition rate (%),[19],5.3% and -3.9%
same,Inhibition rate (%),[20],13.8% and 4%
same,Inhibition rate (%),[21],13.7% and 1.8%
same,Inhibition rate (%),[22],3.4% and 2.8%
same,Inhibition rate (%),[23],2.8% and 4.2%
same,Inhibition rate (%),[24],6.7% and 7.4%
same,Inhibition rate (%),[25],12.8% and -0.9%
B1,Kd,[26],33.5 nM
same,koff,[26],0.00384 s⁻¹
same,kon,[26],115000 M⁻¹ s⁻¹
B2,fold reduction of affinity against the corresponding chimeric antibody,[27],12.5 fold
B3,"mIL-2 (pg/mL), antigen-specific T lymphocyte stimulation test; antibody 0.016 ug/mL",[28],98.2 pg/mL
same,"mIL-2 (pg/mL), antigen-specific T lymphocyte stimulation test; antibody 0.08 ug/mL",[28],134 pg/mL
same,"mIL-2 (pg/mL), antigen-specific T lymphocyte stimulation test; antibody 2 ug/mL",[28],251 pg/mL
same,"mIL-2 (pg/mL), antigen-specific T lymphocyte stimulation test; antibody 10 ug/mL",[28],352 pg/mL
same,Mean fluorescence intensity,[2],2.7 MFI
same,Mean fluorescence intensity,[3],3.9 MFI
same,Mean fluorescence intensity,[4],7 MFI
same,Mean fluorescence intensity,[5],17.1 MFI
same,Mean fluorescence intensity,[6],44.4 MFI
same,Mean fluorescence intensity,[7],68.4 MFI
same,Mean fluorescence intensity,[8],3.2 MFI
same,Mean fluorescence intensity,[9],3.5 MFI
same,Mean fluorescence intensity,[10],4.2 MFI
same,Mean fluorescence intensity,[11],8.8 MFI
same,Mean fluorescence intensity,[12],28.1 MFI
same,Mean fluorescence intensity,[13],77.7 MFI
same,Mean fluorescence intensity,[14],79.4 MFI
same,Mean fluorescence intensity,[15],112 MFI
same,Mean fluorescence intensity,[16],81 MFI
same,Mean fluorescence intensity,[17],128 MFI
same,Inhibition rate (%),[18],-12.4%
same,Inhibition rate (%),[19],8.1%
same,Inhibition rate (%),[20],15.2%
same,Inhibition rate (%),[21],45%
same,Inhibition rate (%),[22],93.8%
same,Inhibition rate (%),[23],95.8%
same,Inhibition rate (%),[24],96%
same,Inhibition rate (%),[25],95.9%
B4,Kd,[26],2.68 nM
same,koff,[26],0.000433 s⁻¹
same,kon,[26],162000 M⁻¹ s⁻¹
B5,fold increase of affinity against the chimeric antibody 405B8H3,[27],1.5 times
